Data taken from US20250243272A1 (GOOD T CELLS, published 2025).

T1: Lrig-1 protein expressed on the surfaces of L cells (human, UniProt Q96JA1 35-1093)
T1 construct: no signal peptide limits are stated; also called L cells that stably express Lrig-1
T1 sequence: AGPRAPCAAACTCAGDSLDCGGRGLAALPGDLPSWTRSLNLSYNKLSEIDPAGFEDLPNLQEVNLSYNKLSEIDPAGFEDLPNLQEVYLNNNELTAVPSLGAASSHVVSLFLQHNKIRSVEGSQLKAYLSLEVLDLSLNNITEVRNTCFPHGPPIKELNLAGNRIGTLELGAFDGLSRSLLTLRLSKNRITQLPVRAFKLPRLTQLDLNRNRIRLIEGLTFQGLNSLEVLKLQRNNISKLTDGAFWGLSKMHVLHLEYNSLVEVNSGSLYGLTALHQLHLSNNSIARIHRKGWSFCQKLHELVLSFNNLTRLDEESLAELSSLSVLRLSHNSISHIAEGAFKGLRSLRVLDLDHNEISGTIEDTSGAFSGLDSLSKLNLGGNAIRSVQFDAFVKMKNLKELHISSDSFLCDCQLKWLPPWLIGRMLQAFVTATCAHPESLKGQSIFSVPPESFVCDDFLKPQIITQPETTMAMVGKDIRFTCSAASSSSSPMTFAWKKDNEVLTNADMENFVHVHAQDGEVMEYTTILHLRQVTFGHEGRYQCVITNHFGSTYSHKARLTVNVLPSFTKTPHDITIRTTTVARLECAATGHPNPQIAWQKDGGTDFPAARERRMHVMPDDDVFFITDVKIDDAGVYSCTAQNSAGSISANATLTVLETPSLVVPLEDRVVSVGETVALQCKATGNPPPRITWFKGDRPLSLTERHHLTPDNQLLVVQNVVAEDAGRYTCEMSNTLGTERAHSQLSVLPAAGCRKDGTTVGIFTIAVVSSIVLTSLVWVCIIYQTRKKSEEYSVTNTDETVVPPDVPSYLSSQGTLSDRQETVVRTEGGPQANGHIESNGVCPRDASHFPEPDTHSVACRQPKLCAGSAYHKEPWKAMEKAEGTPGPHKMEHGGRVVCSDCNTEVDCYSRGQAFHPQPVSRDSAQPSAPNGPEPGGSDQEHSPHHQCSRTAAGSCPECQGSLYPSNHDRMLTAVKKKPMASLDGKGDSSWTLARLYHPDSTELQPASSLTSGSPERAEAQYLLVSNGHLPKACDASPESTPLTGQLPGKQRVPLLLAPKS


Molecular target: T1, Lrig-1 protein expressed on the …
Experiment: FACS on L cells stably expressing Lrig-1, eFlour 670-conjugated anti-mouse secondary antibody
Procedure: In order to examine whether the monoclonal antibodies according to the present invention, produced in Production Examples 1 to 8, well recognize Lrig-1, each of the antibodies of Production Examples 1 to 8 was bound to L cells that stably express Lrig-1, and then an eFlour 670-conjugated secondary antibody capable of recognizing mouse antibodies was added thereto. Next, the binding affinities of the monoclonal antibodies for the Lrig-1 protein were analyzed using FACS.

Binder	binding result
GTC210-01 clone (Production Example 1) (antibody, mouse IgG2a, V domains shown, the printed full chains carry mouse constant regions) VH: EVQLLESGGGLVQPGGSLRLSCAASGFTFSGYDMSWVRQAPGKGLEWVSLIYPDSGNKYYADSVKGRFTISRDNSKNTLYLQMNSLRAEDTAVYYCARDAGLSWAGAFDYWGQGTLVTVSS VL: QSVLTQPPSASGTPGQRVTISCSGSSSNIGSNYVTWYQQLPGTAPKLLIYSDSHRPSGVPDRFSGSKSGTSASLAISGLQSEDEADYYCGSWDYSLSAYVFGGGTKLTVLR	binds
GTC210-03 clone (Production Example 3) (antibody, mouse IgG2a, V domains shown) VH: EVQLLESGGGLVQPGGSLRLSCAASGFTFSSYDMSWVRQAPGKGLEWVSGISPDGSNIYYADSVKGRFTISRDNSKNTLYLQMNSLRAEDTAVYYCAKVGLRCRYEACSYAYGMDVWGQGTLVTVSS VL: QSVLTQPPSASGTPGQRVTISCSGSSSNIGSNYVSWYQQLPGTAPKLLIYSDSHRPSGVPDRFSGSKSGTSASLAISGLRSEDEADYYCATWDSSLNGYVFGGGTKLTVLR	binds
GTC110-04 clone (Production Example 8) (antibody, mouse IgG2a, V domains shown, also called GTC110-04 antibody; GTTC110-04 antibody) VH: EVQLLESGGGLVQPGGSLRLSCAASGFTFSNYAMSWVRQAPGKGLEWVSVISHGGGSTYYADSVKGRFTISRDNSKNTLYLQMNSLRAEDTAVYYCARVISNCHLGVCYYSNGMDVWGQGTLVTVSS VL: QSVLTQPPSASGTPGQRVTISCSGSSSNIGNNDVYWYQQLPGTAPKLLIYSDSQRPSGVPDRFSGSKSGTSASLAISGLRSEDEADYYCGTWDYSLSGYVFGGGTKLTVLR	binds
GTC110-03 clone (Production Example 7) (antibody, mouse IgG2a, V domains shown) VH: EVQLLESGGGLVQPGGSLRLSCAASGFTFSNYAMSWVRQAPGKGLEWVSAIYPGGGSIYYADSVKGRFTISRDNSKNTLYLQMNSLRAEDTAVYYCARDILPCPWGRCYYDYAMDVWGQGTLVTVSS VL: QSVLTQPPSASGTPGQRVTISCSDSSSNIGSNTVSWYQQLPGTAPKLLIYADNNRPSGVPDRFSGSKSGTSASLAISGLRSEDEADYYCGTWDYSLSGYVFGGGTKLTVLR	binds
GTC 210-04 clone (Production Example 4) (antibody, mouse IgG2a, V domains shown, The printed heavy variable region is the same as that of GTC110-01) VH: EVQLLESGGGLVQPGGSLRLSCAASGFTFSNYDMSWVRQAPGKGLEWVSSISPSSGSIYYADSVKGRFTISRDNSKNTLYLQMNSLRAEDTAVYYCAKDLDAFWRPSFDYWGQGTLVTVSS VL: QSVLTQPPSASGTPGQRVTISCTGSSSNIGNNNVNWYQQLPGTAPKLLIYSDSHRPSGVPDRFSGSKSGTSASLAISGLRSEDEADYYCGSWDDSLSAYVFGGGTKLTVLR	binds

Results, then the binder that gave them:

binding result	Binder
binds	GTC110-02 clone (Production Example 6) (antibody, mouse IgG2a, V domains shown) VH: EVQLLESGGGLVQPGGSLRLSCAASGFTFSDYYMSWVRQAPGKGLEWVSGISHDSGSKYYADSVKGRFTISRDNSKNTLYLQMNSLRAEDTAVYYCARHWTTFDYWGQGTLVTVSS VL: QSVLTQPPSASGTPGQRVTISCSGSSSNIGSNNVTWYQQLPGTAPKLLIYANSNRPSGVPDRFSGSKSGTSASLAISGLRSEDEADYYCGAWDYSLSAYVFGGGTKLTVLR
binds	GTC210-02 clone (Production Example 2) (antibody, mouse IgG2a, V domains shown) VH: EVQLLESGGGLVQPGGSLRLSCAASGFTFSNYYMSWVRQAPGKGLEWVSGISPGDSSTYYADSVKGRFTISRDNSKNTLYLQMNSLRAEDTAVYYCAKGLYSNPNEPFDYWGQGTLVTVSS VL: QSVLTQPPSASGTPGQRVTISCTGSSSNIGSNYVSWYQQLPGTAPKLLIYDDSQRPSGVPDRFSGSKSGTSASLAISGLRSEDEADYYCGTWDYSLNGYVFGGGTKLTVLR
